Legend:
[1] = molecular target: DmORC Orc1deltaN;DmCdc6deltaN241 (Drosophila melanogaster;Drosophila …, UniProt O16810;Q24168;Q7K2L1;Q9W102;Q24169;Q9Y1B2;Q9VSM9 …, |del1-241); assay: cryo-EM; ATP, Mg2+; Anisotropy: 1 nM dsDNA, 25 mM HEPES-KOH pH 7.6, 300 mM K-glutamate, 10 mM Mg-acetate, 10% glycerol, 0.1% NP40, 1 mM DTT, 0.1 mg/mL BSA, 0 or 1 mM ATP, 25 C, 40; conditions: protein: recombinant;recombinant; tags: tags cleaved;6xHis-MBP cleaved by TEV; copies: 1;1;1;1;1;1;1; blunt
[2] = molecular target: T1, Drosophila Orc1 lacking the N-terminal 439 residues (Orc1ΔN), subunit of DmORC^Orc1ΔN (Drosophila, UniProt O16810 440-924); assay: cryo-EM structure; DmORC^Orc1ΔN (2.5 μM), duplex DNA (3 μM; 60 bp AT-rich, 84 bp AT-rich, 60 bp poly(dA·dT) or 60 bp GC-rich) and DmCdc6ΔN (6.8 μM) assembled at 25 °C in 25 mM HEPES-KOH pH 7.6, 250 mM potassium acetate, 10 mM magnesium acetate, 1 mM DTT, 1 mM ATP; purified by gel filtration; conditions: both partners purified
T1 construct: Orc1, Drosophila, without the N-terminal 439 amino acid residues; also called DmOrc1; source: Hi5 insect cells, co-expressed with the other ORC subunits, purified as part of DmORC^Orc1ΔN; not shown: 6xHis, N-terminal, cleaved
T1 sequence (looked up): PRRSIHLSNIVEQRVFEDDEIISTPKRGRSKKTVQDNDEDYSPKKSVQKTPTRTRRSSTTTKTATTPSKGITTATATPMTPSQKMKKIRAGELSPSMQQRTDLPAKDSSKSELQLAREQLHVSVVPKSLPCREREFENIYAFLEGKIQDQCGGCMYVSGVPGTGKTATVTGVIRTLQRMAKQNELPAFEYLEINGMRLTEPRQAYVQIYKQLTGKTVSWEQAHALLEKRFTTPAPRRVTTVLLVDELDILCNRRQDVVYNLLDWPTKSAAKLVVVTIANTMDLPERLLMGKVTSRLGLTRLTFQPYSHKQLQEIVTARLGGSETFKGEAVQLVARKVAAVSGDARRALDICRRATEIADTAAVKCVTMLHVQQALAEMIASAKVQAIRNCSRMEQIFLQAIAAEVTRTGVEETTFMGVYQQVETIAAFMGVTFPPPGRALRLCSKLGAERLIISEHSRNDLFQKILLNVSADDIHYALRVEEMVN

[3] = molecular target: T2, Drosophila Orc2, subunit of DmORC^Orc1ΔN (Drosophila, UniProt Q24168 1-618); assay: as above; conditions: both partners purified
T2 construct: Orc2, Drosophila; only Orc1 is named as truncated in DmORC^Orc1ΔN; also called DmOrc2; source: Hi5 insect cells, co-expressed with the other ORC subunits, purified as part of DmORC^Orc1ΔN
T2 sequence: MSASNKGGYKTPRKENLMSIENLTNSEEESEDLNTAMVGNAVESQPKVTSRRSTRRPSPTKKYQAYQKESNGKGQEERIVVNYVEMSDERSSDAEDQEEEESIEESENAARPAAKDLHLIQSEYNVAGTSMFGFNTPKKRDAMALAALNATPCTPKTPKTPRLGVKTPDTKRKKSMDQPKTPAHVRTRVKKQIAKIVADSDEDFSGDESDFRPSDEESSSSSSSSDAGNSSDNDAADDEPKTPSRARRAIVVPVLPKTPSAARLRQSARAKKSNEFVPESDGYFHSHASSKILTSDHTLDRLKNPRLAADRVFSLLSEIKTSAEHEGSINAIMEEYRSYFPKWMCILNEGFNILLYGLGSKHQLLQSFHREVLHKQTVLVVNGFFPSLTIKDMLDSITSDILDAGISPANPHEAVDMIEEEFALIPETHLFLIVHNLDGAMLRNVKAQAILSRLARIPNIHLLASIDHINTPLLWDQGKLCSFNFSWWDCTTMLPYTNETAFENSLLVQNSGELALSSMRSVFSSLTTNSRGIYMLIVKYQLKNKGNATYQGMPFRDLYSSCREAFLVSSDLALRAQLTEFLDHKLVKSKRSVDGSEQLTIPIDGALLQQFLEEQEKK

[4] = molecular target: T3, Drosophila origin recognition complex with N-terminally truncated Orc1 (DmORC^Orc1ΔN) (Drosophila, UniProt O16810 440-924; Q24168 1-618; Q7K2L1 1-721; Q9W102 1-459; Q24169 1-460; Q9Y1B2 …); assay: as above; conditions: both partners purified
T3 construct: Orc1, Drosophila, without the N-terminal 439 amino acid residues (Orc1ΔN); Orc2, Drosophila; only Orc1 is named as truncated in DmORC^Orc1ΔN; Orc3, Drosophila; Orc4, Drosophila; Orc5, Drosophila; Orc6, Drosophila; full-length DmOrc6 was used to reconstitute the binary and ternary complexes; Heterohexamer used for cryo-EM and for the pull-down with Cdc6ΔN; also called truncated DmORC; not shown: …
T3 sequence (chain, as listed by the source mutant, chain 4 of 3): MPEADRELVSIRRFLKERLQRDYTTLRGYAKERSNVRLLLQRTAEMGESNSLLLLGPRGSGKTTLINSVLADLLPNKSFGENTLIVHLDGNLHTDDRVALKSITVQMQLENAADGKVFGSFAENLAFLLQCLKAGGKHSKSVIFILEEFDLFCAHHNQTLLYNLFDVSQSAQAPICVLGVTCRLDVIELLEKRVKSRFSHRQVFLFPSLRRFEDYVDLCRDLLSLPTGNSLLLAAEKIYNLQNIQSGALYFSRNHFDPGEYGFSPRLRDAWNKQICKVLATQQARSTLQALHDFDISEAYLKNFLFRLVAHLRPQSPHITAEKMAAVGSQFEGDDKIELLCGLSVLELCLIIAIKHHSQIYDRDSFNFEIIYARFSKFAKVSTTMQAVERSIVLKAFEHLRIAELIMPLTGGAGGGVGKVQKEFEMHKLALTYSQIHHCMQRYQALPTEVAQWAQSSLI
T3 sequence (Q24169 whole entry, stated change not applied, chain 5 of 3, the tested form may be a part): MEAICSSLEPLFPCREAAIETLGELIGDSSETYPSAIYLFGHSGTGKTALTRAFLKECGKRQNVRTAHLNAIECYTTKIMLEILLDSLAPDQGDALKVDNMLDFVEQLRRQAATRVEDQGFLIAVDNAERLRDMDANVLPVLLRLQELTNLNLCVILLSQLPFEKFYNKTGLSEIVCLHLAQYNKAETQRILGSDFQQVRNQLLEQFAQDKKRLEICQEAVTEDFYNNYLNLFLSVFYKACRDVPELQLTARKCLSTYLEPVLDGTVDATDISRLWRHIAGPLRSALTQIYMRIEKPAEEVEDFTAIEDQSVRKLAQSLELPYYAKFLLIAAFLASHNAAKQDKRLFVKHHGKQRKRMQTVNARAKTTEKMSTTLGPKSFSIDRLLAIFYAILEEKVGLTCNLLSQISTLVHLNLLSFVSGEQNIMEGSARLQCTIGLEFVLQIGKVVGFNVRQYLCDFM
T3 sequence (Q9Y1B2 whole entry, stated change not applied, chain 6 of 3, the tested form may be a part): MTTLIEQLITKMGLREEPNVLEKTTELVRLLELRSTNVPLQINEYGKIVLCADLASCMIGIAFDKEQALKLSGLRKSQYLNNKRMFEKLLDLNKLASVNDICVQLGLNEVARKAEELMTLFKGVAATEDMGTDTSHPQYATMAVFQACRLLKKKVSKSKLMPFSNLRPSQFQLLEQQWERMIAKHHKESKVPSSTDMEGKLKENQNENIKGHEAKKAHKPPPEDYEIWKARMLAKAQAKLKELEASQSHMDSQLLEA

[5] = molecular target: T4, Drosophila Orc3, subunit of DmORC^Orc1ΔN (Drosophila, UniProt Q7K2L1 1-721); assay: as above; conditions: both partners purified
T4 construct: Orc3, Drosophila; only Orc1 is named as truncated in DmORC^Orc1ΔN; also called DmOrc3; source: Hi5 insect cells, co-expressed with the other ORC subunits, purified as part of DmORC^Orc1ΔN
T4 sequence: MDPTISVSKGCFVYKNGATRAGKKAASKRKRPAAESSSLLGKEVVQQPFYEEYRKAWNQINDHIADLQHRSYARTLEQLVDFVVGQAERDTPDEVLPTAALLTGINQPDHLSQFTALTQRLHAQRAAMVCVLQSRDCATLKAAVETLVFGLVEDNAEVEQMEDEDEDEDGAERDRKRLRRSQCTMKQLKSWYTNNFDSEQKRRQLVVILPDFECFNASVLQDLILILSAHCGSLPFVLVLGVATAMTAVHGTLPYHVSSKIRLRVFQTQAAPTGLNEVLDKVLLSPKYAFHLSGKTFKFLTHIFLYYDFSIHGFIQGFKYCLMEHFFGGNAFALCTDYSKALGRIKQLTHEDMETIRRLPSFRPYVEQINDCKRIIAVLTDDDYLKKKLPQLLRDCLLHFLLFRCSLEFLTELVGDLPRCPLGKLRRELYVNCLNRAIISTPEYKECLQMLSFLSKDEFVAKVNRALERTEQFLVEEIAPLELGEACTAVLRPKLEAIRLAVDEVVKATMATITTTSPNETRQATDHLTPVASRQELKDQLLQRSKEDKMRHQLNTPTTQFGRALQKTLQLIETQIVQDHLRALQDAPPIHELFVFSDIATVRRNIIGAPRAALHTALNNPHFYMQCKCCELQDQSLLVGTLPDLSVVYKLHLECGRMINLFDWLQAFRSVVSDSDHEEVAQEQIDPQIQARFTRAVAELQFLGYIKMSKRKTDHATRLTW

[6] = molecular target: T3, Drosophila origin recognition complex …; assay: pull-down; MBP-DmCdc6 or 6xHis-MBP-DmCdc6ΔN (200 nM) as bait on amylose beads; DmORC (100 nM) with 60 bp AT-rich dsDNA (100 nM); 25 mM HEPES-KOH pH 7.6, 300 mM potassium glutamate, 10 mM magnesium acetate, 10% glycerol, 1 mM DTT, 0 or 1 mM ATP; 25 °C; SDS-PAGE and silver staining; conditions: both partners purified
[7] = molecular target: T5, Drosophila origin recognition complex, full-length (DmORC) (Drosophila, UniProt O16810 1-924; Q24168 1-618; Q7K2L1 1-721; Q9W102 1-459; Q24169 1-460; Q9Y1B2 …); assay: as above; conditions: both partners purified
T5 construct: Orc1, Drosophila, subunit of full-length DmORC; Orc2, Drosophila, subunit of full-length DmORC; Orc3, Drosophila, subunit of full-length DmORC; Orc4, Drosophila, subunit of full-length DmORC; Orc5, Drosophila, subunit of full-length DmORC; Orc6, Drosophila, subunit of full-length DmORC; Heterohexamer Orc1-6; also called wild type DmORC; not shown: 6xHis, N-terminal, cleaved; MBP, N-terminal, …

Chain of DmORC Orc1deltaN;DmCdc6deltaN241 (chain, as listed by the source |del1-241 | mutant, chain 4 of 3): as the sequence (chain, as listed by the source mutant, chain 4 of 3) above
Chain of DmORC Orc1deltaN;DmCdc6deltaN241 (Q24169 whole entry, stated change not applied, chain 5 of 3): as the sequence (Q24169 whole entry, stated change not applied, chain 5 of 3, the tested form may be a part) above
Chain of DmORC Orc1deltaN;DmCdc6deltaN241 (Q9Y1B2 whole entry, stated change not applied, chain 6 of 3): as the sequence (Q9Y1B2 whole entry, stated change not applied, chain 6 of 3, the tested form may be a part) above

B1: 84 bp AT-rich (dsDNA)
DNA 1: TTTGTGCACTTGCCTGCAGGCCTTTTGAAAAGCAAGCATAAAAGATCTAAACATAAAATCTGTAAAATAACAAGATGTAAAGAT
DNA 2: ATCTTTACATCTTGTTATTTTACAGATTTTATGTTTAGATCTTTTATGCTTGCTTTTCAAAAGGCCTGCAGGCAAGTGCACAAA
binding result [1]: binds

B2: 60 bp GC-rich (70% GC) (dsDNA)
DNA 1: GGGGCTCGACTCCAAGTGCGGGGCACTCGTCTGTGAGGGGGCTCAGTTCGCACTGCGGGG
DNA 2: CCCCGCAGTGCGAACTGAGCCCCCTCACAGACGAGTGCCCCGCACTTGGAGTCGAGCCCC
binding result [1]: binds

B3: N-terminally truncated Drosophila Cdc6 (DmCdc6ΔN241), tags removed (domain or fragment, UniProt Q9VSM9 242-662, looked up)
chain: NNLPSPSRNKYQNARRVLNSAETQNLPGRESQLQELREFFSNHLESQTSGSLYVSGQPGTGKTACLSLLLRDPDFSKRLQRVYINCTSIASVGAVYKKLCTELQLKVSGRTERDHLEAIQRHLKTAKRMLLLVLDEIDQLCTSRQEVLYTIFEWPALPGSRILLVGIANSLDLTDRALMRLNARCELKPRLMHFPPYSKQQIVEIFKSRLAEAEVLDVFPPVTLQLLAAKVSAISGDVRRALDIGRRVVEIAEQQKRDGEKEFNMKALQLEGKDAVEAKEKQDTLKPVQVTQVAAVLNKVYGASQNLEEDIEASFPLQQKLMLCTLVLMLRNERNKDISMGRLHEVYRRVCAKRNILALDQAEFTGTVDLVETRGILRIMRKKEPRLHKVLLQWDEEEVHAALSDKQLIASILSDTACLSK
notes: Cdc6, Drosophila, ΔN241, amino acids 242-662; not shown: 6xHis, N-terminal, cleaved; MBP, N-terminal, cleaved
binding result [2]: binds | binding result [3]: binds | binding result [4]: binds | binding result [5]: binds

B4: 6xHis-MBP-tagged N-terminally truncated Drosophila Cdc6 (6xHis-MBP-DmCdc6ΔN241) (domain or fragment, UniProt Q9VSM9 242-662, looked up)
chain: B3 chain
notes: Cdc6, Drosophila, ΔN241, amino acids 242-662; also called 6xHis-MBP-tagged DmCdc6ΔN241; source: TEV cleavage omitted; not shown: 6xHis, N-terminal, kept; MBP, N-terminal, kept
binding result [6]: binds

B5: full-length MBP-tagged Drosophila Cdc6 (MBP-DmCdc6) (natural protein, UniProt Q9VSM9 1-662, looked up)
chain: MAAVRRSTRLSSISKATAASPLPPSTQTPRRSEVWKRRQPKKVLADSDEEEEVVTAIYDLTSPVSENNENRNVLNKMDKISRRRTSQVQVAQSELPKTPRSTKKTVQSAGSSRAKREEENREATARFLEGEQDSEVDPLHGSPPKQRKLQPLPQHLISPSRLLDRLSIDERQEEEVEATTHKTETAEQQPKHQAKDEAKPRPKQQEDPLAQKQQEKPPTKQPNKNQTKEKSNIQTNEETQQNNLPSPSRNKYQNARRVLNSAETQNLPGRESQLQELREFFSNHLESQTSGSLYVSGQPGTGKTACLSLLLRDPDFSKRLQRVYINCTSIASVGAVYKKLCTELQLKVSGRTERDHLEAIQRHLKTAKRMLLLVLDEIDQLCTSRQEVLYTIFEWPALPGSRILLVGIANSLDLTDRALMRLNARCELKPRLMHFPPYSKQQIVEIFKSRLAEAEVLDVFPPVTLQLLAAKVSAISGDVRRALDIGRRVVEIAEQQKRDGEKEFNMKALQLEGKDAVEAKEKQDTLKPVQVTQVAAVLNKVYGASQNLEEDIEASFPLQQKLMLCTLVLMLRNERNKDISMGRLHEVYRRVCAKRNILALDQAEFTGTVDLVETRGILRIMRKKEPRLHKVLLQWDEEEVHAALSDKQLIASILSDTACLSK
notes: TEV site between MBP and Cdc6; source: Hi5 insect cells, baculovirus, purified (amylose, gel filtration); not shown: MBP, N-terminal, kept
binding result [7]: binds

Reference: publication PMC7450096, “Structural mechanism for replication origin binding and remodeling by a metazoan origin recognition complex and its co-loader Cdc6” (Nature Communications, 2020)
